According to IntAct's records for PubMed 22158122:

B1: TGF-beta-activated kinase 1 and MAP3K7-binding protein 3 (Homo sapiens), Q8N5C8-1 (parent)
chain: MAQSSPQLDIQVLHDLRQRFPEIPEGVVSQCMLQNNNNLEACCRALSQESSKYLYMEYHSPDDNRMNRNRLLHINLGIHSPSSYHPGDGAQLNGGRTLVHSSSDGHIDPQHAAGKQLICLVQEPHSAPAVVAATPNYNPFFMNEQNRSAATPPSQPPQQPSSMQTGMNPSAMQGPSPPPPPPSYMHIPRYSTNPITVTVSQNLPSGQTVPRALQILPQIPSNLYGSPGSIYIRQTSQSSSGRQTPQSTPWQSSPQGPVPHYSQRPLPVYPHQQNYQPSQYSPKQQQIPQSAYHSPPPSQCPSPFSSPQHQVQPSQLGHIFMPPSPSTTPPHPYQQGPPSYQKQGSHSVAYLPYTASSLSKGSMKKIEITVEPSQRPGTAINRSPSPISNQPSPRNQHSLYTATTPPSSSPSRGISSQPKPPFSVNPVYITYTQPTGPSCTPSPSPRVIPNPTTVFKITVGRATTENLLNLVDQEERSAAPEPIQPISVIPGSGGEKGSHKYQRSSSSGSDDYAYTQALLLHQRARMERLAKQLKLEKEELERLKSEVNGMEHDLMQRRLRRVSCTTAIPTPEEMTRLRSMNRQLQINVDCTLKEVDLLQSRGNFDPKAMNNFYDNIEPGPVVPPKPSKKDSSDPCTIERKARRISVTSKVQADIHDTQAAAADEHRTGSTQSPRTQPRDEDYEGAPWNCDSCTFLNHPALNRCEQCEMPRYT
partner: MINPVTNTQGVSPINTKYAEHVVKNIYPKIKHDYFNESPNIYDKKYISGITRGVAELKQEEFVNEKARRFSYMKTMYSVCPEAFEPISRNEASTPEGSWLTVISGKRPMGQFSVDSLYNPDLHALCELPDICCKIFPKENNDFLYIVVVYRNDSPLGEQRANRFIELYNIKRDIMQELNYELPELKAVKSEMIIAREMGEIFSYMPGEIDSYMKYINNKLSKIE
B2: TGF-beta-activated kinase 1 and MAP3K7-binding protein 2 (Homo sapiens), Q9NYJ8 (parent)
chain: MAQGSHQIDFQVLHDLRQKFPEVPEVVVSRCMLQNNNNLDACCAVLSQESTRYLYGEGDLNFSDDSGISGLRNHMTSLNLDLQSQNIYHHGREGSRMNGSRTLTHSISDGQLQGGQSNSELFQQEPQTAPAQVPQGFNVFGMSSSSGASNSAPHLGFHLGSKGTSSLSQQTPRFNPIMVTLAPNIQTGRNTPTSLHIHGVPPPVLNSPQGNSIYIRPYITTPGGTTRQTQQHSGWVSQFNPMNPQQVYQPSQPGPWTTCPASNPLSHTSSQQPNQQGHQTSHVYMPISSPTTSQPPTIHSSGSSQSSAHSQYNIQNISTGPRKNQIEIKLEPPQRNNSSKLRSSGPRTSSTSSSVNSQTLNRNQPTVYIAASPPNTDELMSRSQPKVYISANAATGDEQVMRNQPTLFISTNSGASAASRNMSGQVSMGPAFIHHHPPKSRAIGNNSATSPRVVVTQPNTKYTFKITVSPNKPPAVSPGVVSPTFELTNLLNHPDHYVETENIQHLTDPTLAHVDRISETRKLSMGSDDAAYTQALLVHQKARMERLQRELEIQKKKLDKLKSEVNEMENNLTRRRLKRSNSISQIPSLEEMQQLRSCNRQLQIDIDCLTKEIDLFQARGPHFNPSAIHNFYDNIGFVGPVPPKPKDQRSIIKTPKTQDTEDDEGAQWNCTACTFLNHPALIRCEQCEMPRHF
partner: B1 partner

Variants of: B1
Conditions: with nlee_eco27 nleE

Q: C689S was tested. Which “effect of a mutation on the interaction” value did it give?
A: The value was “disrupting interaction”.

Q: With C703S as the variant, how does the “effect of a mutation on the interaction” value read?
A: Its value is “disrupting interaction”.

Q: Which “effect of a mutation on the interaction” value does the source give for C706S here?
A: Its value is “disrupting interaction”.

Variants of: B2
Conditions: with nlee_eco27 nleE

Q: How did the “effect of a mutation on the interaction” value turn out when C687S was run?
A: Its value is “disrupting interaction”.

Q: For C670S, which “effect of a mutation on the interaction” value is on record?
A: The value was “disrupting interaction”.

Q: With C684S as the variant, how does the “effect of a mutation on the interaction” value read?
A: The value was “disrupting interaction”.
